{
  "source": "paper PMC3352095",
  "about": "“Structure and function of FusB: an elongation factor G-binding fusidic acid resistance protein active in ribosomal translocation and recycling” (Open Biology, 2012)",
  "key": {"[1]": {"molecular_target": "T1, S. aureus EF-G (Staphylococcus aureus, UniProt P68790)", "T1 construct": "gene fusA; full-length wild type, recombinant; assayed on E. coli 70S ribosomes with E. coli translation factors", "assay": "tripeptide (fMet-Phe-Phe) formation, quenched at […] s, HPLC", "format": "biochemical"}, "[2]": {"molecular_target": "S. aureus elongation factor G (S. aureus) (UniProt P68790)"}, "[3]": {"molecular_target": "S. aureus elongation factor G (S. aureus) (UniProt P68790)", "remark": "listed apart in the source"}, "[4]": {"molecular_target": "S. aureus elongation factor G (S. aureus) (UniProt P68790)", "remark": "listed apart in the source"}, "[5]": {"molecular_target": "S. aureus elongation factor G (S. aureus) (UniProt P68790)", "assay": "SEC; 2 nmol EF-G (wild-type or hybrid) with or without 4 nmol FusB (twofold excess) in 100 µl gel filtration buffer (20 mM Tris pH 7.8, 300 mM NaCl) on Superdex200 10/300; shift in elution volume of the EF-G peak as read-out; hybrid G also with 2.5-fold excess of FusB"}},
  "data": [
    {"compound": "CC(=O)O[C@H]1C[C@@]2(C)[C@@H](C[C@@H](O)[C@H]3[C@@]4(C)CC[C@@H](O)[C@@H](C)[C@@H]4CC[C@@]32C)/C1=C(\\CCC=C(C)C)C(=O)O", "note": "[FA, fusidic acid]", "values": [
      {"measurement": "inhibition at 150 µM", "setting": "[1]", "result": 50, "unit": "%"}
    ]},
    {"compound": "FusB (natural protein)", "values": [
      {"measurement": "extent of tripeptide formation in 10 s with S. aureus EF-G, FA 150 µM (50 per cent with FA alone), FusB 1 µM", "setting": "[2]", "result": 75, "unit": "per cent"},
      {"measurement": "rate of splitting of the post-termination complex by S. aureus EF-G and RRF (Rayleigh light scattering) with FA 10 µM and FusB 1 µM (0.15 s^-1 without FA; blocked with FA alone)", "setting": "[3]", "result": 0.02, "unit": "s⁻¹"},
      {"measurement": "multiple- and single-round luciferase synthesis in a reconstituted E. coli transcription-translation system with S. aureus EF-G, FA 20 µM, FusB 1 µM; increase against the reactions with only FA", "setting": "[4]", "result": "< 5", "unit": "fold"},
      {"measurement": "stoichiometry N", "setting": "[5]", "result": 1}
    ]}
  ]
}
